Several values for one entry are separate records, joined by “and”; a condition that tells them apart may be missing. Equal entries are not always repeated.
Assays:
[1] = biological target: Human recombinant TUBB3 (human) (UniProt Q13509); experiment: SPR Biacore T200, TUBB3 immobilised, 1:1 model; mean of two experiments
[2] = biological target: Porcine tubulin dimer (porcine); experiment: SPR Biacore T200, tubulin dimer amine-coupled to CM5, gp120 3.13-100 nM as analyte, 1:1 model; one of two experiments
[3] = biological target: Human recombinant TUBB3 (human) (UniProt Q13509); experiment: SPR Biacore T200, TUBB3 amine-coupled to CM5, gp120 3.13-100 nM as analyte, 1:1 model; one of two experiments
[4] = biological target: assembled microtubules (containing ~25% of TUBB3) (porcine) (UniProt F1S6M7); experiment: SPR Biacore T200, assembled MTs amine-coupled to CM5, gp120 3.13-100 nM as analyte, 1:1 model; one of two experiments
[5] = biological target: assembled microtubules (containing ~25% of TUBB3) (porcine) (UniProt F1S6M7); experiment: SPR Biacore T200, assembled MTs immobilised, 1:1 model; mean of two experiments
[6] = biological target: Porcine tubulin dimer (porcine); experiment: SPR Biacore T200, tubulin dimer immobilised, 1:1 model; mean of two experiments
[7] = biological target: Porcine tubulin dimer (porcine); experiment: SPR Biacore T200, 60 sec injection of 100 nM over immobilised tubulin dimer, reference-subtracted
[8] = biological target: assembled microtubules (containing ~25% of TUBB3) (porcine) (UniProt F1S6M7); experiment: SPR Biacore T200, 60 sec injection of 100 nM over immobilised microtubules, reference-subtracted
[9] = biological target: Human recombinant TUBB3 (human) (UniProt Q13509); experiment: SPR Biacore T200, 60 sec injection of 100 nM over immobilised tubulin β-3, reference-subtracted

Chain of Human recombinant TUBB3 (human) (Q13509 whole entry): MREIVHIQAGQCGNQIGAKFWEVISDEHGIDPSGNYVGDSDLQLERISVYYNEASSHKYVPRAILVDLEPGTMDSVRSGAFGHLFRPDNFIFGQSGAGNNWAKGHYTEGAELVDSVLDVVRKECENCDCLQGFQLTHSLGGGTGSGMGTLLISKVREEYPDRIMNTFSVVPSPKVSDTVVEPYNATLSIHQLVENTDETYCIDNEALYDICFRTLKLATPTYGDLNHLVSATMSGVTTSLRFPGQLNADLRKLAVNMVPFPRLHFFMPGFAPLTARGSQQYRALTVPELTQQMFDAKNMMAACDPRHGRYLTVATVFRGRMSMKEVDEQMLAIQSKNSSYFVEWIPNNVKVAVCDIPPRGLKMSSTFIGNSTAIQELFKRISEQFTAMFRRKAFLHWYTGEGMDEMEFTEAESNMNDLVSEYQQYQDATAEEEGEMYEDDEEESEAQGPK

| Substance | Kd [1] | Kd [2] | Kd [3] | Kd [4] | Kd [5] | Kd [6] | response (3-1) RU [7] | response (4-1) RU [8] | response (2-1) RU [9] |
| --- | --- | --- | --- | --- | --- | --- | --- | --- | --- |
| gp120ADA | 10.3 nM | 5.4 nM and 1.71 nM | 5.48 nM and 15.2 nM | 5.62 nM and 1.83 nM | 12 nM | 11.2 nM |  |  |  |
| gp120IIIB (from UniProt P04578 33-511) |  | 1.69 nM and 7.68 nM |  | 1.16 nM and 8.46 nM | 10 nM | 12.3 nM | 14 RU and 18.6 RU and 21 RU | 15 RU and 23.2 RU and 19 RU | 35 RU and 44 RU |

— US20150239933A1
